Consider two proteins from paper PMC9234707, “Type II BMP and activin receptors BMPR2 and ACVR2A share a conserved mode of growth factor recognition” (The Journal of Biological Chemistry, 2022).

The series concerns the molecule itself. The series is described as follows: crystal structure; purified GF combined with 1.2 M excess of purified, deglycosylated receptor GBD; buffer exchanged to 10 mM Tris-HCl, 40 mM NaCl, pH 8.0; BMPR2-activin B crystals in 14% PEG 3K, 175 mM (NH4)2SO4, 100 mM BisTris pH 5.4; ACVR2A-activin A crystals in 17% PEG 3K, 100 NaCitrate pH 5.8.

B1: activin A (ligand, human (by the printed accession), UniProt P08476 311-426, looked up)
chain: GLECDGKVNICCKKQFFVSFKDIGWNDWIIAPSGYHANYCEGECPSHIAGTSGSSLSFHSTVINHYRMRGHSPFANLKSCCVPTKLRPMSMLYYDDGQNIIKKDIQNMIVEECGCS
notes: activin A (inhibin beta A chain), full mature moiety, residues 311 to 426; disulfide linked dimer; it was removed with the prodomain; also called ActA; INHBA
Take B1: the binding result is “binds”.

B2: activin B (ligand, human (by the printed accession), UniProt P09529 293-407, looked up)
chain: GLECDGRTNLCCRQQFFIDFRLIGWNDWIIAPTGYYGNYCEGSCPAYLAGVPGSASSFHTAVVNQYRMRGLNPGTVNSCCIPTKLSTMSMLYFDDEYNIVKRDVPNMIVEECGCA
notes: activin B (inhibin beta B chain), full mature moiety, residues 293 to 407; disulfide linked dimer; also called ActB; INHBB
For the protein B2, the binding result is reported as “binds”.
